Here are results for eight molecules from US20260337282 (published 2026).

Residue numbers refer to the chain shown, from its start. Bounds are passed on as bounds.

The EC50 is the concentration needed to bring the measured effect to its halfway point. A low value points to an effect from little substance.

To fix the notation:
T1: human CX3CR1 (human)
T1 chain: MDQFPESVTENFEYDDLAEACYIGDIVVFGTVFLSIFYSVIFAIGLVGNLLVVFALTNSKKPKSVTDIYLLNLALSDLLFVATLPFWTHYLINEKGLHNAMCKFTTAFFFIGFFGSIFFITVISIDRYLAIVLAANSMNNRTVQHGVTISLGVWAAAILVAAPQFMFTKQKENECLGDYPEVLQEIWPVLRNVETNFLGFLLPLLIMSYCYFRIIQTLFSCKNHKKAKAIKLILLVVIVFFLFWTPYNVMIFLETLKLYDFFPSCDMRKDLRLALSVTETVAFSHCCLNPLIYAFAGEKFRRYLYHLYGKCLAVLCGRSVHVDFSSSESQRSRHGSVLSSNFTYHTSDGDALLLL

T2: human CCR2 (human)
T2 chain: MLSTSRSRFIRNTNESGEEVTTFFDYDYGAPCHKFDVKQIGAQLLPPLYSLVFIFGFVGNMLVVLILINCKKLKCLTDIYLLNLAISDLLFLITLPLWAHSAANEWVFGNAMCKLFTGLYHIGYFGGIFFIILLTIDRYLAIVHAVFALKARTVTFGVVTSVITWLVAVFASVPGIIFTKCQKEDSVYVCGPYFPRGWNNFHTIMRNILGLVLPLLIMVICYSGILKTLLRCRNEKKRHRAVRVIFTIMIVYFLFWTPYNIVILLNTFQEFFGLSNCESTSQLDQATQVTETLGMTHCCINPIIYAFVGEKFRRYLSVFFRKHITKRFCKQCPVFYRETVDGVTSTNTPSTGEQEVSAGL

T3: cynomolgus CCR8 (cynomolgus)
T3 chain: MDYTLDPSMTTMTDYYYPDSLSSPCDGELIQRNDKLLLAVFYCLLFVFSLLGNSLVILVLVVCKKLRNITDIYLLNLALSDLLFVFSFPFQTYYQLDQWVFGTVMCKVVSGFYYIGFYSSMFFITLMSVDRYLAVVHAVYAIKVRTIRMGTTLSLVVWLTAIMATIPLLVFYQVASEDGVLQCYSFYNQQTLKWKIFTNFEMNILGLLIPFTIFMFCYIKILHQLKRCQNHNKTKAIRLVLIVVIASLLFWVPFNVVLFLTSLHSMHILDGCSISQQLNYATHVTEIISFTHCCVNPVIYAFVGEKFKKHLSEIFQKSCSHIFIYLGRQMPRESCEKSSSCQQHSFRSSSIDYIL

T4: mouse CCR8 (mouse)
T4 chain: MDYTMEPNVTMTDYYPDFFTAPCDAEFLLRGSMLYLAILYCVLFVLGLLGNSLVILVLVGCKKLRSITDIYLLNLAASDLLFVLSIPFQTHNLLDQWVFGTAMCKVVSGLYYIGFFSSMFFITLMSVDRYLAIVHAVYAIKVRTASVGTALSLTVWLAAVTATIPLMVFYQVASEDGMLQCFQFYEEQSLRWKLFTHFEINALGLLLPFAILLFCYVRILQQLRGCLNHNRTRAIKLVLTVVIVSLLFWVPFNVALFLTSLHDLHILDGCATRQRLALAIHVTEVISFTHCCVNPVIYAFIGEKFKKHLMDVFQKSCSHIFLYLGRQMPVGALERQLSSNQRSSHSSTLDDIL

T5: human CCR4 (human)
T5 chain: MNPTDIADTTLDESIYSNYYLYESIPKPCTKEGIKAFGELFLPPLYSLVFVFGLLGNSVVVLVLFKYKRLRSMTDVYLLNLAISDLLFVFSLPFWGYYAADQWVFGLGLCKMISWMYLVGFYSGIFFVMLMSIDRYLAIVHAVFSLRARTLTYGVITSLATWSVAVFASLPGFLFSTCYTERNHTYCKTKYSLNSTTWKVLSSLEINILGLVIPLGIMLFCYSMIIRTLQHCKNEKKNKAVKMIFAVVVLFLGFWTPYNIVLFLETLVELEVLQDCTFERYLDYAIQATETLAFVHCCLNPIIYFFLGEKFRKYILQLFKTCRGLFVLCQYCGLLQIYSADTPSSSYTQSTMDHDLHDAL

B1: 11F8 (antibody, V domains shown)
VH: QVQLVESGGGVVQPGRSLRLSCAASGFTFSTYVMHWVRQAPGKGLEWVAVISYDGNNKYYADSVKGRFIISRDNSKNTLFLQMNSLRGEDTAVYYCARGRSYVNYYGLDVWGQGTTVTVSS
VL: DIVMTQTPLSLSVTPGQPASISCKSSQSLLYSDGKTYLYWYLQKPGQPPHLLIYEVSNRFSGVPKRFSGSGSGTDFTLKISRVEAEDVGVYYCMQSVKIPLTFGGGTKVEIK
B2: 11F5 (antibody, V domains shown)
VH: EVQLVESGGGVVQPGRSLRLSCAASGFTFSSYVVHWVRQAPGKGLEWVAVISYDGDNKFYADSVKGRFTISRDNSKNTLYLQMNSLRTEDTAVYYCARGRNYYYYYGLDVWGQGTTVTVSS
VL: B1 VL with P45A, H50Q, K65D, Y91F, V97L, I99V, L101P, G105Q, E110D
B3: 11B12 (antibody, V domains shown)
VH: QVQLVESGGGVVQPGRSLRLSCAASGFSFSSYVMHWVRQAPGKGLEWVAVISYDGSDKYYADSVKGRFTISRDNSKNTLFLQMNSLRPEDTAVYYCARGRGYRYGQSYYYGMDVWGQGTTVTVSS
VL: B1 VL with H50Q, L51I, Y54F, K65D, V97I, I99L
B4: 7B16 analog (antibody, V domains shown)
VH: EVQLVESGGGLVQPGGSLKLSCAASGFTFNTYAMNWVRQASGKGLEWVGRIRSKSNNYATYYADSVKDRFTISRDDSKNTAYLQMNSLKTEDTAVYYCVRGLLRYRFFDVWGQGTTVTVSS
VL: DIVMTQSPLSLPVTPGEPASISCRSSKSLLHSNGNTYLYWFLQKPGQSPQLLIYRMSNLASGVPDRFSGSGSGTDFTLKISRVEAEDVGVYYCMQHLEYPFTFGGGTKVEIK
B5: 10A11 analog (antibody, V domains shown)
VH: EVQLVESGGALVKPGGSLRLSCAASGFTFSTYALYWVRQAPGKGLEWVGRIRSKSNNYATYYADSVKDRFTISRDDSKNTLYLQMNSLKTEDTAVYYCTRARFYYSDYGYAMDYWGQGTLVTVSS
VL: DIVMTQSPDSLAVSLGERATINCRSSKSLLHSNRNTYLYWYQQKPGQPPKLLIYRMSQLASGVPDRFSGSGSGTDFTLTISSLQAEDVAVYYCMQHLEYPLTFGQGTKLEIKR
B6: Leronlimab analog (antibody, V domains shown)
VH: EVQLVESGGGLVKPGGSLRLSCAASGYTFSNYWIGWVRQAPGKGLEWIGDIYPGGNYIRNNEKFKDKTTLSADTSKNTAYLQMNSLKTEDTAVYYCGSSFGSNYVFAWFTYWGQGTLVTVSS
VL: DIVMTQSPLSLPVTPGEPASISCRSSQRLLSSYGHTYLHWYLQKPGQSPQLLIYEVSNRFSGVPDRFSGSGSGTDFTLKISRVEAEDVGVYYCSQSTHVPLTFGQGTKVEIK
B7: Mogamulizumab analog-SI (antibody, V domains shown)
VH: EVQLVESGGDLVQPGRSLRLSCAASGFIFSNYGMSWVRQAPGKGLEWVATISSASTYSYYPDSVKGRFTISRDNAKNSLYLQMNSLRVEDTALYYCGRHSDGNFAFGYWGQGTLVTVSS
VL: DVLMTQSPLSLPVTPGEPASISCRSSRNIVHINGDTYLEWYLQKPGQSPQLLIYKVSNRFSGVPDRFSGSGSGTDFTLKISRVEAEDVGVYYCFQGSLLPWTFGQGTKVEIK
B8: Plozalizuzumab analog (antibody, V domains shown)
VH: EVQLVESGGGLVKPGGSLRLSCAASGFTFSAYAMNWVRQAPGKGLEWVGRIRTKNNNYATYYADSVKDRFTISRDDSKNTLYLQMNSLKTEDTAVYYCTTFYGNGVWGQGTLVTVSS
VL: DVVMTQSPLSLPVTLGQPASISCKSSQSLLDSDGKTFLNWFQQRPGQSPRRLIYLVSKLDSGVPDRFSGSGSGTDFTLKISRVEAEDVGVYYCWQGTHFPYTFGQGTRLEIK

The target of one test is human CCR8 (human). In words: FACS. Background: Flow cytometry measures light scatter and fluorescence of single cells or particles in a stream.
human CCR8 (human), sequence (chain, as listed by the source): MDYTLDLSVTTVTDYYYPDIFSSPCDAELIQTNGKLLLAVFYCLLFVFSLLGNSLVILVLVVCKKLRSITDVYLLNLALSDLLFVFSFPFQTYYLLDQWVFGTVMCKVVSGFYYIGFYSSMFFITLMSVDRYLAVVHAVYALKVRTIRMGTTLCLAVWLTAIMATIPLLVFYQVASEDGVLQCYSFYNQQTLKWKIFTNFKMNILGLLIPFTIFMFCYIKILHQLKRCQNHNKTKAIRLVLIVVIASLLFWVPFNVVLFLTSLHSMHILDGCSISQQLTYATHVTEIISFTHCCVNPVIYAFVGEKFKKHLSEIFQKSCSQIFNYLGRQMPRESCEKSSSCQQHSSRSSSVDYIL
B1 showed an EC50 of 0.104 µg/mL.
Same read-out and setting: the same measure for B2: 0.287 µg/mL; for B3: 0.194 µg/mL; for B4: 0.039 µg/mL.
The molecule B5 returned an EC50 of 0.058 µg/mL.

The next test has as its target human CCR8 (human). The test is described as follows: FACS. This is another data set of the same source.
Turning to B1, the EC50 came to 0.104 µg/mL.
Same read-out and setting: as for B2, the figure is 0.287 µg/mL.
In turn, B3 showed an EC50 of 0.194 µg/mL.

Another test has as its target T1, human CX3CR1. In words: FACS.
Take B6: the binding result was “no binding”.
The same measure, in the same setting: the same measure for B7: “no binding”; for B1: “no binding”.
Take B2: the binding result is “no binding”.
In the case of B3, the binding result is reported as “no binding”.
On the same count and under the same terms, the same measure for B8: “no binding”.

The next test has as its target T2, human CCR2. In words: FACS.
Turning to B6, the binding result is “no binding”.
B7: the binding result is recorded as “no binding”.
With B1, the binding result is “no binding”.
Same read-out and setting: as for B2, the entry is “no binding”; as for B3, “no binding”.

The next test addresses T3, cynomolgus CCR8. The test is described as follows: FACS.
Regarding B1, the EC50 was 0.71 µg/mL.
In turn, B2 displayed an EC50 of more than 2 µg/mL.
Molecule B3 came in with an EC50 of 0.103 µg/mL.

A further test deals with human CCR8 (human). In words: FACS. The source holds these as a separate data set.
In turn, B1 yielded an EC50 of 0.0814 µg/mL.
Take B2: it took 0.285 µg/mL to reach a half-maximal effect (EC50).
Still for that read-out and setting: as for B3, the figure is 0.21 µg/mL.

A further test concerns the target T4, mouse CCR8. In words: FACS.
For B1, the EC50 is 0.127 µg/mL.
Molecule B2 had a half-maximal effective concentration (EC50) of 0.4 µg/mL.
Still for that read-out and setting: as for B3, the figure is 0.177 µg/mL.

The target in another test is T3, cynomolgus CCR8. The test is described as follows: FACS. This is another data set of the same source.
With B4, the binding result is “no binding”.

The next test addresses T4, mouse CCR8. In words: FACS. The source holds these as a separate data set.
B2 yielded a 50% effective concentration (EC50) of 0.168 µg/mL.

Another test has as its target human CCR8 (human). In words: FACS. This is another data set of the same source.
Regarding B6, the binding result was “no binding”.
Consider B7, for which the binding result is listed as “no binding”.
The same measure, in the same setting: the same measure for B8: “no binding”.

Another test deals with T4, mouse CCR8. The test is described as follows: FACS. This is another data set of the same source.
Turning to B4, the binding result was “no binding”.
Still for that read-out and setting: the same measure for B5: “no binding”.

The target in the next test is human CCR5 (human). In words: FACS.
human CCR5 (human), sequence (O14692 whole entry): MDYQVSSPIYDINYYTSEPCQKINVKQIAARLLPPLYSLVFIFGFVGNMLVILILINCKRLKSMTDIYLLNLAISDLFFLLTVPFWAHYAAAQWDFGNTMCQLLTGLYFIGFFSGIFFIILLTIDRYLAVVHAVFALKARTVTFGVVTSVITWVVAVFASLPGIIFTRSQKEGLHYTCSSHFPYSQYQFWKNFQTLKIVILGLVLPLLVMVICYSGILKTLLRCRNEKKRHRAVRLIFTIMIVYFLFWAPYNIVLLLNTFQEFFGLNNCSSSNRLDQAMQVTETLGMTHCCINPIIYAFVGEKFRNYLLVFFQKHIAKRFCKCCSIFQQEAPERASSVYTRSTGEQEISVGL
As for B7, the binding result is “no binding”.
Same read-out and setting: as for B1, the entry is “no binding”.
In the case of B2, the binding result is on record as “no binding”.
Same read-out and setting: as for B3, the entry is “no binding”; as for B8, “no binding”.

The next test addresses T4, mouse CCR8. The test is described as follows: FACS. This is another data set of the same source.
Regarding B1, a half-maximal effect (EC50) was put at 0.127 µg/mL.
The same measure, in the same setting: as for B2, the figure is 0.4 µg/mL; as for B3, 0.177 µg/mL.
The same measure, in the same setting: the same measure for B4: more than 10 µg/mL; for B5: more than 10 µg/mL.

A further test deals with T5, human CCR4. In words: FACS.
For the molecule B6, the binding result is “no binding”.
For the molecule B1, the binding result is “no binding”.
Same read-out and setting: the same measure for B2: “no binding”.
Still for that read-out and setting: as for B3, the entry is “no binding”; as for B8, “no binding”.

The target of the next test is human CCR8 (human). The test is described as follows: FACS. The source holds these as a separate data set.
Molecule B2 registered an EC50 of 0.207 µg/mL.
